Literature values as cited in PMC3409362.
Where two headings read alike, the source gives them in different places.

Experiments:
[1] = target: F-actin (Oryctolagus cuniculus) (UniProt P68135)
[2] = target: F-actin (Oryctolagus cuniculus) (UniProt P68135); remark: listed apart in the source

Kd [1] | Kd [2] | Substance
150 nM | – | V-ATPase B1 subunit (from UniProt P15313)
– | 150 nM | V-ATPase B2 subunit (from UniProt P21281)
